In PMC7886051, “Redesigning the Molecular Choreography to Prevent Hydroxylation in Germacradien-11-ol Synthase Catalysis” (ACS Catalysis, 2021):

These proteins were tested on CC(C)=CCC/C(C)=C/CC/C(C)=C/CO[P@@](=O)(O)OP(=O)(O)O (assay: steady-state kinetics of purified enzyme (details in supplement)). Conditions: Mg2+-dependent enzyme; assay conditions in supplement.
Format: biochemical, Streptomyces coelicolor
Source text: steady-state kinetics of purified enzyme (details in supplement) on Gd11olS (germacradien-11-ol synthase; N-terminal domain of geosmin synthase)

Protein	Km [µM]	kcat [s⁻¹]
Gd11olS (germacradien-11-ol synthase; N-terminal domain of geosmin synthase) (Streptomyces coelicolor A3(2); V187A) (protein, N-terminal domain, residues 1-366 of geosmin synthase; codon-optimized synthetic gene in pET28a, expressed in E. coli, purified to homogeneity; tag details in supplement) MTQQPFQLPHFYLPHPARLNPHLDEARAHSTTWAREMGMLEGSGVWEQSDLEAHDYGLLCAYTHPDCDGPALSLITDWYVWVFFFDDHFLEKYKRSQDRLAGKAHLDRLPLFMPLDDAAGMPEPRNPVEAGLADLWTRTVPAMSADWRRRFAVATEHLLNESMWELSNINEGRVANPVEYIEMRRKAGGAPWSAGLVEYATAEVPAAVAGTRPLRVLMETFSDAVHLRNDLFSYQREVEDEGELSNGVLVLETFFGCTTQEAADLVNDVLTSRLHQFEHTAFTEVPAVALEKGLTPLEVAAVGAYTKGLQDWQSGGHEWHMRSSRYMNKGERPLAGWQALTGPGTSAADVGALLADAVAQRARSYT	0.3 ± 0.06	0.000194 ± 1e-07
Gd11olS (germacradien-11-ol synthase; N-terminal domain of geosmin synthase) (Streptomyces coelicolor A3(2); H320A) (protein, N-terminal domain, residues 1-366 of geosmin synthase; codon-optimized synthetic gene in pET28a, expressed in E. coli, purified to homogeneity; tag details in supplement) MTQQPFQLPHFYLPHPARLNPHLDEARAHSTTWAREMGMLEGSGVWEQSDLEAHDYGLLCAYTHPDCDGPALSLITDWYVWVFFFDDHFLEKYKRSQDRLAGKAHLDRLPLFMPLDDAAGMPEPRNPVEAGLADLWTRTVPAMSADWRRRFAVATEHLLNESMWELSNINEGRVANPVEYIEMRRKVGGAPWSAGLVEYATAEVPAAVAGTRPLRVLMETFSDAVHLRNDLFSYQREVEDEGELSNGVLVLETFFGCTTQEAADLVNDVLTSRLHQFEHTAFTEVPAVALEKGLTPLEVAAVGAYTKGLQDWQSGGHEWAMRSSRYMNKGERPLAGWQALTGPGTSAADVGALLADAVAQRARSYT	1.12 ± 0.10	3.8e-05 ± 1e-07
Gd11olS (germacradien-11-ol synthase; N-terminal domain of geosmin synthase) (Streptomyces coelicolor A3(2); R228V) (protein, N-terminal domain, residues 1-366 of geosmin synthase; codon-optimized synthetic gene in pET28a, expressed in E. coli, purified to homogeneity; tag details in supplement) MTQQPFQLPHFYLPHPARLNPHLDEARAHSTTWAREMGMLEGSGVWEQSDLEAHDYGLLCAYTHPDCDGPALSLITDWYVWVFFFDDHFLEKYKRSQDRLAGKAHLDRLPLFMPLDDAAGMPEPRNPVEAGLADLWTRTVPAMSADWRRRFAVATEHLLNESMWELSNINEGRVANPVEYIEMRRKVGGAPWSAGLVEYATAEVPAAVAGTRPLRVLMETFSDAVHLVNDLFSYQREVEDEGELSNGVLVLETFFGCTTQEAADLVNDVLTSRLHQFEHTAFTEVPAVALEKGLTPLEVAAVGAYTKGLQDWQSGGHEWHMRSSRYMNKGERPLAGWQALTGPGTSAADVGALLADAVAQRARSYT	0.8 ± 0.10	0.0001814 ± 4e-07
Gd11olS (germacradien-11-ol synthase; N-terminal domain of geosmin synthase) (Streptomyces coelicolor A3(2); G188S) (protein, N-terminal domain, residues 1-366 of geosmin synthase; codon-optimized synthetic gene in pET28a, expressed in E. coli, purified to homogeneity; tag details in supplement) MTQQPFQLPHFYLPHPARLNPHLDEARAHSTTWAREMGMLEGSGVWEQSDLEAHDYGLLCAYTHPDCDGPALSLITDWYVWVFFFDDHFLEKYKRSQDRLAGKAHLDRLPLFMPLDDAAGMPEPRNPVEAGLADLWTRTVPAMSADWRRRFAVATEHLLNESMWELSNINEGRVANPVEYIEMRRKVSGAPWSAGLVEYATAEVPAAVAGTRPLRVLMETFSDAVHLRNDLFSYQREVEDEGELSNGVLVLETFFGCTTQEAADLVNDVLTSRLHQFEHTAFTEVPAVALEKGLTPLEVAAVGAYTKGLQDWQSGGHEWHMRSSRYMNKGERPLAGWQALTGPGTSAADVGALLADAVAQRARSYT	5.7 ± 0.9	4.08e-05 ± 2e-06
Gd11olS (germacradien-11-ol synthase; N-terminal domain of geosmin synthase) (Streptomyces coelicolor A3(2); H320F) (protein, N-terminal domain, residues 1-366 of geosmin synthase; codon-optimized synthetic gene in pET28a, expressed in E. coli, purified to homogeneity; tag details in supplement) MTQQPFQLPHFYLPHPARLNPHLDEARAHSTTWAREMGMLEGSGVWEQSDLEAHDYGLLCAYTHPDCDGPALSLITDWYVWVFFFDDHFLEKYKRSQDRLAGKAHLDRLPLFMPLDDAAGMPEPRNPVEAGLADLWTRTVPAMSADWRRRFAVATEHLLNESMWELSNINEGRVANPVEYIEMRRKVGGAPWSAGLVEYATAEVPAAVAGTRPLRVLMETFSDAVHLRNDLFSYQREVEDEGELSNGVLVLETFFGCTTQEAADLVNDVLTSRLHQFEHTAFTEVPAVALEKGLTPLEVAAVGAYTKGLQDWQSGGHEWFMRSSRYMNKGERPLAGWQALTGPGTSAADVGALLADAVAQRARSYT	1.8 ± 0.5	2.3e-05 ± 2e-07
Gd11olS (germacradien-11-ol synthase; N-terminal domain of geosmin synthase) (Streptomyces coelicolor A3(2); W312F) (protein, N-terminal domain, residues 1-366 of geosmin synthase; codon-optimized synthetic gene in pET28a, expressed in E. coli, purified to homogeneity; tag details in supplement) MTQQPFQLPHFYLPHPARLNPHLDEARAHSTTWAREMGMLEGSGVWEQSDLEAHDYGLLCAYTHPDCDGPALSLITDWYVWVFFFDDHFLEKYKRSQDRLAGKAHLDRLPLFMPLDDAAGMPEPRNPVEAGLADLWTRTVPAMSADWRRRFAVATEHLLNESMWELSNINEGRVANPVEYIEMRRKVGGAPWSAGLVEYATAEVPAAVAGTRPLRVLMETFSDAVHLRNDLFSYQREVEDEGELSNGVLVLETFFGCTTQEAADLVNDVLTSRLHQFEHTAFTEVPAVALEKGLTPLEVAAVGAYTKGLQDFQSGGHEWHMRSSRYMNKGERPLAGWQALTGPGTSAADVGALLADAVAQRARSYT	0.9 ± 0.09	0.000255 ± 6e-07
Gd11olS (germacradien-11-ol synthase; N-terminal domain of geosmin synthase) (Streptomyces coelicolor A3(2); G188A) (protein, N-terminal domain, residues 1-366 of geosmin synthase; codon-optimized synthetic gene in pET28a, expressed in E. coli, purified to homogeneity; tag details in supplement) MTQQPFQLPHFYLPHPARLNPHLDEARAHSTTWAREMGMLEGSGVWEQSDLEAHDYGLLCAYTHPDCDGPALSLITDWYVWVFFFDDHFLEKYKRSQDRLAGKAHLDRLPLFMPLDDAAGMPEPRNPVEAGLADLWTRTVPAMSADWRRRFAVATEHLLNESMWELSNINEGRVANPVEYIEMRRKVAGAPWSAGLVEYATAEVPAAVAGTRPLRVLMETFSDAVHLRNDLFSYQREVEDEGELSNGVLVLETFFGCTTQEAADLVNDVLTSRLHQFEHTAFTEVPAVALEKGLTPLEVAAVGAYTKGLQDWQSGGHEWHMRSSRYMNKGERPLAGWQALTGPGTSAADVGALLADAVAQRARSYT	3.8 ± 1.5	3.7e-05 ± 5e-06
Gd11olS (germacradien-11-ol synthase; N-terminal domain of geosmin synthase) (Streptomyces coelicolor A3(2); Q313N) (protein, N-terminal domain, residues 1-366 of geosmin synthase; codon-optimized synthetic gene in pET28a, expressed in E. coli, purified to homogeneity; tag details in supplement) MTQQPFQLPHFYLPHPARLNPHLDEARAHSTTWAREMGMLEGSGVWEQSDLEAHDYGLLCAYTHPDCDGPALSLITDWYVWVFFFDDHFLEKYKRSQDRLAGKAHLDRLPLFMPLDDAAGMPEPRNPVEAGLADLWTRTVPAMSADWRRRFAVATEHLLNESMWELSNINEGRVANPVEYIEMRRKVGGAPWSAGLVEYATAEVPAAVAGTRPLRVLMETFSDAVHLRNDLFSYQREVEDEGELSNGVLVLETFFGCTTQEAADLVNDVLTSRLHQFEHTAFTEVPAVALEKGLTPLEVAAVGAYTKGLQDWNSGGHEWHMRSSRYMNKGERPLAGWQALTGPGTSAADVGALLADAVAQRARSYT	0.5 ± 0.07	5.02e-05 ± 1e-07
Gd11olS (germacradien-11-ol synthase; N-terminal domain of geosmin synthase) (Streptomyces coelicolor A3(2); W312A) (protein, N-terminal domain, residues 1-366 of geosmin synthase; codon-optimized synthetic gene in pET28a, expressed in E. coli, purified to homogeneity; tag details in supplement) MTQQPFQLPHFYLPHPARLNPHLDEARAHSTTWAREMGMLEGSGVWEQSDLEAHDYGLLCAYTHPDCDGPALSLITDWYVWVFFFDDHFLEKYKRSQDRLAGKAHLDRLPLFMPLDDAAGMPEPRNPVEAGLADLWTRTVPAMSADWRRRFAVATEHLLNESMWELSNINEGRVANPVEYIEMRRKVGGAPWSAGLVEYATAEVPAAVAGTRPLRVLMETFSDAVHLRNDLFSYQREVEDEGELSNGVLVLETFFGCTTQEAADLVNDVLTSRLHQFEHTAFTEVPAVALEKGLTPLEVAAVGAYTKGLQDAQSGGHEWHMRSSRYMNKGERPLAGWQALTGPGTSAADVGALLADAVAQRARSYT	0.4 ± 0.07	4.02e-05 ± 1e-07
Gd11olS (germacradien-11-ol synthase; N-terminal domain of geosmin synthase) (Streptomyces coelicolor A3(2); Q313A) (protein, N-terminal domain, residues 1-366 of geosmin synthase; codon-optimized synthetic gene in pET28a, expressed in E. coli, purified to homogeneity; tag details in supplement) MTQQPFQLPHFYLPHPARLNPHLDEARAHSTTWAREMGMLEGSGVWEQSDLEAHDYGLLCAYTHPDCDGPALSLITDWYVWVFFFDDHFLEKYKRSQDRLAGKAHLDRLPLFMPLDDAAGMPEPRNPVEAGLADLWTRTVPAMSADWRRRFAVATEHLLNESMWELSNINEGRVANPVEYIEMRRKVGGAPWSAGLVEYATAEVPAAVAGTRPLRVLMETFSDAVHLRNDLFSYQREVEDEGELSNGVLVLETFFGCTTQEAADLVNDVLTSRLHQFEHTAFTEVPAVALEKGLTPLEVAAVGAYTKGLQDWASGGHEWHMRSSRYMNKGERPLAGWQALTGPGTSAADVGALLADAVAQRARSYT	1.10 ± 0.14	6.9e-05 ± 2e-07
Gd11olS (germacradien-11-ol synthase; N-terminal domain of geosmin synthase) (Streptomyces coelicolor A3(2)) (protein, N-terminal domain, residues 1-366 of geosmin synthase; codon-optimized synthetic gene in pET28a, expressed in E. coli, purified to homogeneity; tag details in supplement) MTQQPFQLPHFYLPHPARLNPHLDEARAHSTTWAREMGMLEGSGVWEQSDLEAHDYGLLCAYTHPDCDGPALSLITDWYVWVFFFDDHFLEKYKRSQDRLAGKAHLDRLPLFMPLDDAAGMPEPRNPVEAGLADLWTRTVPAMSADWRRRFAVATEHLLNESMWELSNINEGRVANPVEYIEMRRKVGGAPWSAGLVEYATAEVPAAVAGTRPLRVLMETFSDAVHLRNDLFSYQREVEDEGELSNGVLVLETFFGCTTQEAADLVNDVLTSRLHQFEHTAFTEVPAVALEKGLTPLEVAAVGAYTKGLQDWQSGGHEWHMRSSRYMNKGERPLAGWQALTGPGTSAADVGALLADAVAQRARSYT	0.5 ± 0.08	0.000524 ± 2e-07
